Source: article PMC8525636
Each block holds one substance with its values, some of them ahead of it.

Legend:
[1] = biological target: recombinant rat IgA-Fc segment CH2-CH3-TP, C311/471S double mutant; experiment: SEC (size-exclusion chromatography), self-association into poly-rIgA; settings: parent: est. 32; read off a plot
[2] = biological target: recombinant human IgA1-Fc CH2-CH3-TP, C471S mutant; experiment: SEC (size-exclusion chromatography), self-association into poly-hu-rIgA; settings: parent: est. 9.0; read off a plot
[3] = biological target: recombinant rat IgA-Fc segment CH2-CH3-TP, C471S mutant; experiment: SEC (size-exclusion chromatography), self-association into poly-rIgA; settings: parent: est. 32; read off a plot
[4] = biological target: recombinant rat IgA-Fc segment CH2-CH3-TP, C311S mutant; experiment: as above; settings: parent: est. 32; read off a plot

- other: Distribution (%), poly-rIgA share of SEC AUC [1]: 1.5%
Substance: recombinant rat IgA-Fc segment CH2-CH3-TP, wild type (rat rIgA) C311S; C471S

- other: Distribution (%), poly-hu-rIgA share of SEC AUC [2]: 4%
Substance: recombinant human IgA1-Fc CH2-CH3-TP, wild type (human rIgA1-Fc) C471S

- other: Distribution (%), poly-rIgA share of SEC AUC [3]: 2.5%
Substance: recombinant rat IgA-Fc segment CH2-CH3-TP, wild type (rat rIgA) C471S

- other: Distribution (%), poly-rIgA share of SEC AUC [4]: 28%
Substance: recombinant rat IgA-Fc segment CH2-CH3-TP, wild type (rat rIgA) C311S
